Structures can show the parent of a compound that is named as a salt. Each block holds one molecule with its values, some of them ahead of it. Where no end group is shown, it is not given here.
Tests used:
Type in all cases: binding
[1] = target: T1, LEF-1/β-catenin interaction (Homo sapiens, UniProt P35222); assay: ELISA: inhibition of complex formation of LEF-1 and β-catenin; conditions: for inhibition of the interaction between LEF-1 and β-catenin (complex formation): synthetic peptides, 100 μM to 0.3 μM
T1 construct: made in house; host or cells: bacteria
T1 sequence (P35222 1-781): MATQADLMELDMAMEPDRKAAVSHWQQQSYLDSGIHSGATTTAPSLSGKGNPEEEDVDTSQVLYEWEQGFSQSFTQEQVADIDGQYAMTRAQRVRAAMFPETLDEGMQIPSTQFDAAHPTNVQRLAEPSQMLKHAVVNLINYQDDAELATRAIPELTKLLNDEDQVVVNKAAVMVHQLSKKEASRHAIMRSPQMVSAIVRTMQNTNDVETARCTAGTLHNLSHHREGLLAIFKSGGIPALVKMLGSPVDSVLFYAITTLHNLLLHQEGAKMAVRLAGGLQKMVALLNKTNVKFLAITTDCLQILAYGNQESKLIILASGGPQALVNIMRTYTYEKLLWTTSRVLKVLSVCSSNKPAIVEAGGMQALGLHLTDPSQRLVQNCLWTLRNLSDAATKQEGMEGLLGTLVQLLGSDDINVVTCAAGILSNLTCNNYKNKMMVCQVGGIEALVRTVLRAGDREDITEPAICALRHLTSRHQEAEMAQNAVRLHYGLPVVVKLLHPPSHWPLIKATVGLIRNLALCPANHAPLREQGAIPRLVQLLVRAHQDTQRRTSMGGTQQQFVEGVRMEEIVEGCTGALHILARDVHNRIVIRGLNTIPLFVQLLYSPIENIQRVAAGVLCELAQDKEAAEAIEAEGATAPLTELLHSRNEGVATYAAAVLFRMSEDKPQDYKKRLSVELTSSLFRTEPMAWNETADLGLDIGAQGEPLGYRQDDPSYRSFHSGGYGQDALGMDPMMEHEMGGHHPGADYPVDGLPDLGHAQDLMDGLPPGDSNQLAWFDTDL
Excerpt: Both proteins were produced in bacteria recombinantly with N-terminal histidine sequences, purified by means of nickel chromatography for quantifying the inhibition of the LEF-1/β-catenin interaction by synthetic peptides and (Behrens et al. 1996). The peptides were produced by the company Biosyntan with the aid of a PSSM-8 automaton (Shimadzu, Japan) applying the Fmoc/But strategy (E. Atherton and R. C. Sheppard. 1989 IRL Press. Oxford: “Solid phase peptide synthesis—a practical approach”). Approx. 50 ng of LFF-1 were absorbed in the wells of ELISA plates for 90 minutes at room temperature. Subsequently, the wells were covered with 5% dry milk powder in PBS for 16 hours at 4° C. All further steps were carried out at room temperature in PBS with 50 mM Tris HCl (pH 7.5). After washing the wells with PBS the peptide dilutions were added. The incubation with 50–100 ng of β-catenin was carried out for 10 minutes in the presence of […] BSA. The complex formation of LEF-1 and β-catenin was detected by the antibody PA2 against the carboxy terminal area of β-catenin (Huelsken et al. 1994). PA2 was added in a standard dilution of 1:5000 in 3% of dry milk powder in PBS for 10 minutes. After washing the wells with PBS a quantification was carried out by detection antibodies conjugated by peroxidase (1: 2500 in 3% of dry milk powder in PBS, Dianova) and the conversion of o-phenylenediamine was determined by photometric measurement at […]. The peptides were used in concentrations of 100 μM to 0.3 μM. To check the specificity of the inhibition of the LEF-1/β-catenin interaction β-catenin was absorbed in the wells and detected by means of the same antibodies in the presence and absence of the peptides (FIGS. 2 and 3).
For a mutation analysis of the peptides the indicated amino acids were substituted by alanine during the synthesis. The inhibition of the complex formation of β-catenin and LEF-1 was quantified as has been already described (FIG. 2).

[2] = target: T2, E-cadherin (Mus musculus, UniProt P09803); assay: yeast 2-hybrid: interaction of β-catenin mutants with E-cadherin; conditions: alanine mutants
T2 construct: E-cadherin for the amino acids Gin773–Asp884 (cytoplasmatic domain); expressed in transfected cells; host or cells: yeast (two-hybrid, Matchmaker, Clontech)
Procedure: (§1) The mutagenesis of β-catenin in the armadillo repeats 3–8 was carried out by means of the “mutagenesis kit” of the company Clontech according to the producer's record and the mutants were checked by sequencing (FIG. 5). In all mutants the original amino acid was substituted by alanine. For analyzing the interactions the cDNA of human β-catenin (armadillo repeat 3 up to the C-terminal end of the protein) coding for the amino acids Leu218–Leu7 μl or its mutants was cloned into the fusion vector for the activation domain of Gal-4 (pGAD424, Clontech). The cDNA for the binding domains of the interaction partners was cloned into the Lex-A fusion vector BTM 116. To this end, the cDNA of LEF-1 for the amino acids 1–99, conductin for the amino acids Ala342–ARG465; of human APC for the amino acids His1012–Glu1215 (APC 15 amino acid repeats) and for the amino acids Ser1259Asp 1400 (APC 20 amino acid repeats) and E-cadherin for the amino acids Gin773–Asp884 (cytoplasmatic domain) were amplified with the respective primers PCR. The interaction of the Lex-A hybrids with β-catenin and its mutants was quantified by means of the β-galactosidase reporter activity in the yeast 2-hybrid system (report: “Matchmaker”. Clontech) (Tab. 2 and FIG. 6).

[3] = target: T3, APC (15 amino acid repeats) (Homo sapiens, UniProt P25054); assay: yeast 2-hybrid: interaction of β-catenin mutants with APC 15 amino acid repeats; conditions: for Interaction With APC-15, share of wild type β-catenin interaction: yeast 2-hybrid, alanine mutants
T3 construct: of human APC for the amino acids His1012–Glu1215 (APC 15 amino acid repeats); expressed in transfected cells; host or cells: yeast (two-hybrid, Matchmaker, Clontech)
T3 sequence (P25054 1006-1209 limits assumed): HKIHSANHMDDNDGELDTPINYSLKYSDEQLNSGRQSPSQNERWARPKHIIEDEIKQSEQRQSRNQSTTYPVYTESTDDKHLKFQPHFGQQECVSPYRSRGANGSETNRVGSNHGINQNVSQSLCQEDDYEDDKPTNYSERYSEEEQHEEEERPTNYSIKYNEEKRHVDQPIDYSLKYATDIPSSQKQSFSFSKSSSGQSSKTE
Procedure: as §1

[4] = target: T4, conductin (Mus musculus, UniProt O88566); assay: yeast 2-hybrid: interaction of β-catenin mutants with conductin; conditions: yeast 2-hybrid, alanine mutants
T4 construct: conductin for the amino acids Ala342–ARG465; expressed in transfected cells; host or cells: yeast (two-hybrid, Matchmaker, Clontech)
Procedure: as §1

[5] = target: T5, APC (20 amino acid repeats) (Homo sapiens, UniProt P25054); assay: yeast 2-hybrid: interaction of β-catenin mutants with APC 20 amino acid repeats; conditions: yeast 2-hybrid, alanine mutants
T5 construct: for the amino acids Ser1259Asp 1400 (APC 20 amino acid repeats); expressed in transfected cells; host or cells: yeast (two-hybrid, Matchmaker, Clontech)
T5 sequence (P25054 1253-1394 limits assumed): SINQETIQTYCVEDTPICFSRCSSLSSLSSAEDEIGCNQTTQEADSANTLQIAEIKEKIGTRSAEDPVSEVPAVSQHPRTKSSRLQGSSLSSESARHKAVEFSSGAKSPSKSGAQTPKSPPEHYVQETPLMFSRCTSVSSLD
Procedure: as §1

[6] = target: T6, LEF-1 (Mus musculus, UniProt P27782); assay: yeast 2-hybrid: interaction of β-catenin mutants with LEF-1; conditions: yeast 2-hybrid, alanine mutants
T6 construct: the cDNA of LEF-1 for the amino acids 1–99; expressed in transfected cells; host or cells: yeast (two-hybrid, Matchmaker, Clontech)
Procedure: as §1

T4 sequence (O88566 343-465 limits assumed): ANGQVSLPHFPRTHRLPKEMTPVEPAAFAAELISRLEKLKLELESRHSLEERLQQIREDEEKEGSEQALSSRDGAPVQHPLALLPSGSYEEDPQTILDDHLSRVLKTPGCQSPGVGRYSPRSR
T2 sequence (P09803 773-884): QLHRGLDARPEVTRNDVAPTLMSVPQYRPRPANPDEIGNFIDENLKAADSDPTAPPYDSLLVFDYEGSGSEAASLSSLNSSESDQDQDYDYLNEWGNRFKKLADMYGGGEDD
T6 sequence (P27782 1-99): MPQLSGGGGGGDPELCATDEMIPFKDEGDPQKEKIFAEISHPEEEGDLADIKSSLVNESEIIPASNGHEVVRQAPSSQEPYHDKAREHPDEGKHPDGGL

Molecule: GDPELCATDEMIPFKDEGDPQKEK [11–34]
inhibition of the interaction between LEF-1 and β-catenin (complex formation) [1]: inhibit specifically

Molecule: ELCATDEMIPFKDE [14–27]
inhibition of the interaction between LEF-1 and β-catenin (complex formation) [1]: inhibit specifically

Molecule: Lys21: synthetic hTCF-4 N-terminal peptide with Lys21 substituted (GGDDLGANDELISFADEGEQEEK)
inhibition of the interaction between LEF-1 and β-catenin (complex formation) [1]: has the same effect

Molecule: Asp10: synthetic hTCF-4 N-terminal peptide with Asp10 substituted by alanine (GGDALGANDELISFKDEGEQEEK)
inhibition of the interaction between LEF-1 and β-catenin (complex formation) [1]: stopping the inhibition

Molecule: Cn1nnnc1SCC1=C(C(=O)O)N2C(=O)C(NC(=O)[C@@H](O)c3ccccc3)C2SC1 (some centres unmarked) [cefamandole, CEFAMANDOLESODIUM SALT, reference compound]
IC50 ([1]; recombinant purified proteins, 15–250 μM, FIG. 9, read-out: IC50, reduction of the complex formation of LEF-1 and β-catenin): 25 µM

B2: Arg 342: human β-catenin mutant, Arg 342 substituted by alanine (arm 5) (protein)
chain: LHNLSHHREGLLAIFKSGGIPALVKMLGSPVDSVLFYAITTLHNLLLHQEGAKMAVRLAGGLQKMVALLNKTNVKFLAITTDCLQILAYGNQESKLIILASGGPQALVNIMRTYTYEKLLWTTSAVLKVLSVCSSNKPAIVEAGGMQALGLHLTDPSQRLVQNCLWTLRNLSDAATKQEGMEGLLGTLVQLLGSDDINVVTCAAGILSNLTCNNYKNKMMVCQVGGIEALVRTVLRAGDREDITEPAICALRHLTSRHQEAEMAQNAVRLHYGLPVVVKLLHPPSHWPLIKATVGLIRNLALCPANHAPLREQGAIPRLVQLLVRAHQDTQRRTSMGGTQQQFVEGVRMEEIVEGCTGALHILARDVHNRIVIRGLNTIPLFVQLLYSPIENIQRVAAGVLCELAQDKEAAEAIEAEGATAPLTELLHSRNEGVATYAAAVLFRMSEDKPQDYKKRLSVELTSSLFRTEPMAWNETADLGLDIGAQGEPLGYRQDDPSYRSFHSGGYGQDALGMDPMMEHEMGGHHPGADYPVDGLPDLGHAQDLMDGLPPGDSNQLAWFDTDL
modifications: left off: large carriers; small tags and cut ends
Interaction With APC-15, share of wild type β-catenin interaction [3]: — (Interactions marked by — correspond to 60–100% of the wild type interaction)
Interaction With Conductin, share of wild type β-catenin interaction [4]: 20%
Interaction With APC-20, share of wild type β-catenin interaction [5]: 29%
Interaction With LEF-1, share of wild type β-catenin interaction [6]: — (Interactions marked by — correspond to 60–100% of the wild type interaction)

Further lines, with some results ahead:

inhibition of the interaction between LEF-1 and β-catenin (complex formation) [1]: has the same effect
Molecule: Phe20: synthetic hTCF-4 N-terminal peptide with Phe20 substituted (GGDDLGANDELISAKDEGEQEEK)

inhibition of the interaction between LEF-1 and β-catenin (complex formation) [1]: stopping the inhibition
Molecule: Asp22: synthetic hTCF-4 N-terminal peptide with Asp22 substituted by alanine (GGDDLGANDELISFKAEGEQEEK)

inhibition of the interaction between LEF-1 and β-catenin (complex formation) [1]: does not inhibit complex formation
Molecule: Ile35–Val56: peptide of LEF-1 with the amino acids Ile35–Val56 (IFAEISHPEEEGDLADIKSSLV)

inhibition of the interaction between LEF-1 and β-catenin (complex formation) [1]: stopping the inhibition
Molecule: Asp15: synthetic hTCF-4 N-terminal peptide with Asp15 substituted by alanine (GGDDLGANAELISFKDEGEQEEK)

Interaction With APC-15, share of wild type β-catenin interaction [3]: 12%
interaction with APC 15aa ([3]; β-catenin mutation, in words): no interaction with APC 15aa
Interaction With Conductin, share of wild type β-catenin interaction [4]: 45%
B1: Arg 386: human β-catenin mutant, Arg 386 substituted by alanine (arm 6) (protein)
chain: LHNLSHHREGLLAIFKSGGIPALVKMLGSPVDSVLFYAITTLHNLLLHQEGAKMAVRLAGGLQKMVALLNKTNVKFLAITTDCLQILAYGNQESKLIILASGGPQALVNIMRTYTYEKLLWTTSRVLKVLSVCSSNKPAIVEAGGMQALGLHLTDPSQRLVQNCLWTLANLSDAATKQEGMEGLLGTLVQLLGSDDINVVTCAAGILSNLTCNNYKNKMMVCQVGGIEALVRTVLRAGDREDITEPAICALRHLTSRHQEAEMAQNAVRLHYGLPVVVKLLHPPSHWPLIKATVGLIRNLALCPANHAPLREQGAIPRLVQLLVRAHQDTQRRTSMGGTQQQFVEGVRMEEIVEGCTGALHILARDVHNRIVIRGLNTIPLFVQLLYSPIENIQRVAAGVLCELAQDKEAAEAIEAEGATAPLTELLHSRNEGVATYAAAVLFRMSEDKPQDYKKRLSVELTSSLFRTEPMAWNETADLGLDIGAQGEPLGYRQDDPSYRSFHSGGYGQDALGMDPMMEHEMGGHHPGADYPVDGLPDLGHAQDLMDGLPPGDSNQLAWFDTDL
modifications: left off: large carriers; small tags and cut ends
Interaction With E-Cadherin, share of wild type β-catenin interaction [2]: — (Interactions marked by — correspond to 60–100% of the wild type interaction)
